Molecular target: ZMYND8 (UniProt Q9ULU4)
Test: co-IP of Flag-ZMYND8 and Myc-EZH2
Details: reference: wild type; sites T487

EZH2 (from UniProt Q15910) T487A
binding against the reference: weaker

— publication PMC7923384
